Measurements: patent US9890407B2, “Method for synthesizing cellulose in vitro” (University of Virginia Patent Foundation, priority 2013, dated 2018)
Where a chain is given by its changes, count along the chain named. Names and notes keep the numbering of the source.

Tests used:
cellulose synthesis [1] = assay: Cellulose synthesis activity of inverted membrane vesicles / PLs containing BcsA, BcsB or truncated BcsB; assay type: biochemical, Rhodobacter sphaeroides; details: for catalytic activity (HMW polymer formation): IMVs, 60 min 37° C., with c-di-GMP
Description: FIG. 1A-1C (also referred to as Example 1, FIG. 1): BcsA and BcsB are necessary for cellulose synthesis. (FIG. 1A) Inverted membrane vesicles containing either BcsA, BcsB, or both subunits were incubated for 60 min at 37° C. in the presence and absence of c-di-GMP and 0.25 μCi UDP-[^3H]-Glc. The synthesized polymer was purified by descending paper chromatography and quantified by scintillation counting. The amount of product obtained is shown relative to the product formed from IMVs containing BcsA and BcsB. Control reactions were performed with IMVs derived from cells containing an empty pET28a vector or in the absence of c-di-GMP or the presence of 20 mM EDTA. Results are shown in light and dark gray for components from Ec and Rs, respectively. (FIG. 1B) immuno-blotting of IMVs containing BcsA and BcsB. BcsA and BcsB were expressed with C-terminal poly-histidine- and FLAG-tags, respectively, and the equivalent amounts of IMVs used for activity assays were analyzed under non-reducing conditions by western blotting. […]
FIG. 6A-6C (also referred to as Example 1, FIG. 6): The membrane-associated domain of BesB is required for cellulose synthesis. […] IMVs containing wild-type BesA and the indicated BesB constructs were tested for cellulose synthase activity by quantifying the accumulation of radioactively labeled cellulose. […] (FIG. 6C) Western analysis of the analyzed IMVs and PLs. […] The equivalent amounts of IMVs used for activity assays were used to quantify the BcsA and BcsB expression levels. Vesicles containing WT and the BcsA-B-S684-r complex were analyzed on separate gels. […]
Gram-negative bacteria transport cellulose across the inner and outer bacterial membranes. […] To identify the complex components required for cellulose synthesis and translocation across the inner bacterial membrane, we expressed BcsA and BcsB from Escherichia coli (Ec) K12 and Rhodobacter sphaeroides (Rs) in E. coli C43 (28), prepared inverted membrane vesicles (IMVs), and analyzed them for cellulose synthesis activity. […]

cellulose synthesis [2] = assay type: biochemical, Rhodobacter sphaeroides

BcsA-B-S684: BcsA complexed with BcsB fragment N-terminally truncated to start at Ser684
catalytic activity after reconstitution into PLs (cellulose synthesis [1]; purified truncated complex in PLs): catalytically active

B1: BcsA: bacterial cellulose synthase A, catalytic subunit (SEQ ID NO:1) (protein)
chain: MTVRAKARSPLRVVPVLLFLLWVALLVPFGLLAAAPVAPSAQGLIALSAVVLVALLKPFADKMVPRFLLLSAASMLVMRYWFWRLFETLPPPALDASFLFALLLFAVETFSISIFFLNGFLSADPTDRPFPRPLQPEELPTVDILVPSYNEPADMLSVTLAAAKNMIYPARLRTVVLCDDGGTDQRCMSPDPELAQKAQERRRELQQLCRELGVVYSTRERNEHAKAGNMSAALERLKGELVVVFDADHVPSRDFLARTVGYFVEDPDLFLVQTPHFFINPDPIQRNLALGDRCPPENEMFYGKIHRGLDRWGGAFFCGSAAVLRRRALDEAGGFAGETITEDAETALEIHSRGWKSLYIDRAMIAGLQPETFASFIQQRGRWATGMMQMLLLKNPLFRRGLGIAQRLCYLNSMSFWFFPLVRMMFLVAPLIYLFFGIEIFVATFEEVLAYMPGYLAVSFLVQNALFARQRWPLVSEVYEVAQAPYLARAIVTTLLRPRSARFAVTAKDETLSENYISPIYRPLLFTFLLCLSGVLATLVRWVAFPGDRSVLLVVGGWAVLNVLLVGFALRAVAEKQQRRAAPRVQMEVPAEAQIPAFGNRSLTATVLDASTSGVRLLVRLPGVGDPHPALEAGGLIQFQPKFPDAPQLERMVRGRIRSARREGGTVMVGVIFEAGQPIAVRETVAYLIFGESAHWRTMREATMRPIGLLHGMARILWMAAASLPKTARDFMDEPARRRRRHEEPKEKQAHLLAFGTDFSTEPDWAGELLDPTAQVSARPNTVAWGSN
modifications: Rhodobacter sphaeroides
catalytic activity (HMW polymer formation) (cellulose synthesis [1]): catalytically inactive

B2: BcsB: bacterial cellulose synthase B, periplasmic membrane-anchored subunit (SEQ ID NO:3) (protein)
chain: MDMRLLPFLFLGTLASMAAAQDAPMIVIEGLTSEEPQASPDAVAEAVPAAEVAPWIIPLRPLAETAQVGPLFRLQGQQARAAFRLFLPTEAVGGTLTLAQRSSIDILPESSQIIVRMNDQEIGRFTPRQFGALGAVTMPLGEAVRAGDNLVTIEAQHRHRIYCGADAEFDLWTEVDLSQSGVALPAAAIGTEPTSFIAALTAQAESGRPVEIRTPTPPDEATLRTLAQALGRPLPDEALPLALSKPWSAETGPTYARITLLPSDADRVSIRRGGDGAVVLVLEHPPEGSPNASLVADLLGATPTLPPPTLPQIPPGRVVTLADMGVDTILTDNRYFNRDIDFQLPDDWLLLASQKAQIGIDYGFAGGLPEGALLLVKVNGTTVRMLPLDRDAAPVKPRLDIRFPARLLHPGPNRLSFESVIPGNPPDQPCPASAGDLMQVLSSTDLEVPPSPRMQMADMARDLAQVTPASVHPATPDGLARTLPFMAAFREVPDAAPVDLTVAGLHDIATVPLNEEGLTPRLLALTLLPSTVSRLVERPATPAGPPANALAPLGAAPGEGVMPPLVESNWSDRAQTFVQATLQPVIQTVRRMLRPGDGNLAEWLATRKGTAMLLAPEPGKLWVILGPEAEPARVAEALAMAPRSPGGPRGQVAVLGSDGRWSSWSKPGLLPELREPVSLDNVRSVVGNVASARPPLLLGGMLGLAWISAAIAVGFVLRTRRKGLK
modifications: Rhodobacter sphaeroides
catalytic activity (HMW polymer formation) (cellulose synthesis [1]): catalytically inactive

B3: E371A (protein)
chain: MGTVRAKARSPLRVVPVLLFLLWVALLVPFGLLAAAPVAPSAQGLIALSAVVLVALLKPFADKMVPRFLLLSAASMLVMRYWFWRLFETLPPPALDASFLFALLLFAVETFSISIFFLNGFLSADPTDRPFPRPLQPEELPTVDILVPSYNEPADMLSVTLAAAKNMIYPARLRTVVLCDDGGTDQRCMSPDPELAQKAQERRRELQQLCRELGVVYSTRERNEHAKAGNMSAALERLKGELVVVFDADHVPSRDFLARTVGYFVEDPDLFLVQTPHFFINPDPIQRNLALGDRCPPENEMFYGKIHRGLDRWGGAFFCGSAAVLRRRALDEAGGFAGETITEDAETALEIHSRGWKSLYIDRAMIAGLQPATFASFIQQRGRWATGMMQMLLLKNPLFRRGLGIAQRLCYLNSMSFWFFPLVRMMFLVAPLIYLFFGIEIFVATFEEVLAYMPGYLAVSFLVQNALFARQRWPLVSEVYEVAQAPYLARAIVTTLLRPRSARFAVTAKDETLSENYISPIYRPLLFTFLLCLSGVLATLVRWVAFPGDRSVLLVVGGWAVLNVLLVGFALRAVAEKQQRRAAPRVQMEVPAEAQIPAFGNRSLTATVLDASTSGVRLLVRLPGVGDPHPALEAGGLIQFQPKFPDAPQLERMVRGRIRSARREGGTVMVGVIFEAGQPIAVRETVAYLIFGESAHWRTMREATMRPIGLLHGMARILWMAAASLPKTARDFMDEPARRRRRHEEPKEKQAHLLAFGTDFSTEPDWAGELLDPTAQVSARPNTVAWGSNHHHHHHKLHHHHHH
increase of catalytic activity in the absence of c-di-GMP compared to wild type enzyme (cellulose synthesis [2]; no c-di-GMP, IMVs and PLs): approximately 6 fold

B4: R580A (protein)
chain: B3 chain with A372E, R581A
dependence of catalytic activity on c-di-GMP (cellulose synthesis [2]; formation of cellulose or UDP, with and without 30 μM c-di-GMP): constitutively active
